Measured values from doi:10.1101/2020.02.01.930206 (bioRxiv, 2020).

B4: full-length mouse DNA2 (enzyme)
chain: MEPLDELDLLLLEEDGGAEAVPRVELLRKKADALFPETVLSRGVDNRYLVLAVETSQNERGAEEKRLHVTASQDREHEVLCILRNGWSSVPVEPGDIVHLEGDCTSEPWIIDDDFGYFILYPDMMISGTSVASSIRCLRRAVLSETFRGSDPATRQMLIGTILHEVFQKAISESFAPERLQELALQTLREVRHLKEMYRLNLSQDEILCEVEEYLPSFSKWAEDFMRKGPSSEFPQMQLSLPSDGSNRSSPCNIEVVKSLDIEESIWSPRFGLKGKIDVTVGVKIHRDCKMKYKVMPLELKTGKESNSIEHRSQVVLYTLLSQERREDPEAGWLLYLKTGQMYPVPANHLDKRELLKLRNWLAASLLHRVSRAAPGEEARLSALPQIIEEEKTCKYCSQIGNCALYSRAVEEQGDDASIPEAMLSKIQEETRHLQLAHLKYFSLWCLMLTLESQSKDNRKTHQSIWLTPASELEESGNCVGNLVRTEPVSRVCDGQYLHNFQRKNGPMPATNLMAGDRIILSGEERKLFALSKGYVKKMNKAAVTCLLDRNLSTLPATTVFRLDREERHGDISTPLGNLSKLMESTDPSKRLRELIIDFREPQFIAYLSSVLPHDAKDTVANILKGLNKPQRQAMKRVLLSKDYTLIVGMPGTGKTTTICALVRILSACGFSVLLTSYTHSAVDNILLKLAKFKVGFLRLGQSHKVHPDIQKFTEEEICRSRSIASLAHLEELYNSHPIVATTCMGINHPIFSRKTFDFCIVDEASQISQPVCLGPLFFSRRFVLVGDHQQLPPLVVNREARALGMSESLFKRLERNESAVVQLTVQYRMNRKIMSLSNKLTYAGKLECGSDRVANAVLALPNLKDARLSLQLYADYSDSPWLAGVLEPDNPVCFLNTDKVPAPEQVENGGVSNVTEARLIVFLTSTFIKAGCSPSDIGVIAPYRQQLRIISDLLARSSVGMVEVNTVDKYQGRDKSLILVSFVRSNEDGTLGELLKDWRRLNVALTRAKHKLILLGSVSSLKRFPPLGTLFDHLNAEQLILDLPSREHESLSHILGDCQRD

Legend:
[1] = target: T1, Drosophila melanogaster CIAO2B (Drosophila melanogaster, UniProt Q9VTC4 1-156); assay: crystal structure
T1 sequence: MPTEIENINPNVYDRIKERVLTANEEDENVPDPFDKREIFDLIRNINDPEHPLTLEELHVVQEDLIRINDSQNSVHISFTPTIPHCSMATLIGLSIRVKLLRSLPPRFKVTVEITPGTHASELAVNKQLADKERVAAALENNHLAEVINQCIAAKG

[2] = target: T2, Drosophila melanogaster CIAO1-CIAO2B core complex (Drosophila melanogaster, UniProt Q7K1Y4;Q9VTC4); assay: crystal structure
T2 sequence 1: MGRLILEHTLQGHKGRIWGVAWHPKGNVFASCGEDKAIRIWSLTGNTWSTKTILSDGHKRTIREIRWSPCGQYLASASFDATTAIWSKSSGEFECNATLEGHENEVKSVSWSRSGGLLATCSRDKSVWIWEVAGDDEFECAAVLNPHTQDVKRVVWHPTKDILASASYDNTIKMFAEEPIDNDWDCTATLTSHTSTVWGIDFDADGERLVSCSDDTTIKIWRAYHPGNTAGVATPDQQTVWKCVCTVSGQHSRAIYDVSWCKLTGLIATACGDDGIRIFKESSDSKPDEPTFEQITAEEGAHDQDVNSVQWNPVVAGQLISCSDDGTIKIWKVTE
T2 sequence 2: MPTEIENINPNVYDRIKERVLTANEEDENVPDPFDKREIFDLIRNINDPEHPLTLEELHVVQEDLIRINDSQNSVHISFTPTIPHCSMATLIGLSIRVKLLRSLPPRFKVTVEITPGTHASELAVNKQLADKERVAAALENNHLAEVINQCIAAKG

[3] = target: T3, human MMS19 (subunit of the purified CTC) (human, UniProt Q96T76 1-1030); assay: cryo-EM structure
T3 sequence: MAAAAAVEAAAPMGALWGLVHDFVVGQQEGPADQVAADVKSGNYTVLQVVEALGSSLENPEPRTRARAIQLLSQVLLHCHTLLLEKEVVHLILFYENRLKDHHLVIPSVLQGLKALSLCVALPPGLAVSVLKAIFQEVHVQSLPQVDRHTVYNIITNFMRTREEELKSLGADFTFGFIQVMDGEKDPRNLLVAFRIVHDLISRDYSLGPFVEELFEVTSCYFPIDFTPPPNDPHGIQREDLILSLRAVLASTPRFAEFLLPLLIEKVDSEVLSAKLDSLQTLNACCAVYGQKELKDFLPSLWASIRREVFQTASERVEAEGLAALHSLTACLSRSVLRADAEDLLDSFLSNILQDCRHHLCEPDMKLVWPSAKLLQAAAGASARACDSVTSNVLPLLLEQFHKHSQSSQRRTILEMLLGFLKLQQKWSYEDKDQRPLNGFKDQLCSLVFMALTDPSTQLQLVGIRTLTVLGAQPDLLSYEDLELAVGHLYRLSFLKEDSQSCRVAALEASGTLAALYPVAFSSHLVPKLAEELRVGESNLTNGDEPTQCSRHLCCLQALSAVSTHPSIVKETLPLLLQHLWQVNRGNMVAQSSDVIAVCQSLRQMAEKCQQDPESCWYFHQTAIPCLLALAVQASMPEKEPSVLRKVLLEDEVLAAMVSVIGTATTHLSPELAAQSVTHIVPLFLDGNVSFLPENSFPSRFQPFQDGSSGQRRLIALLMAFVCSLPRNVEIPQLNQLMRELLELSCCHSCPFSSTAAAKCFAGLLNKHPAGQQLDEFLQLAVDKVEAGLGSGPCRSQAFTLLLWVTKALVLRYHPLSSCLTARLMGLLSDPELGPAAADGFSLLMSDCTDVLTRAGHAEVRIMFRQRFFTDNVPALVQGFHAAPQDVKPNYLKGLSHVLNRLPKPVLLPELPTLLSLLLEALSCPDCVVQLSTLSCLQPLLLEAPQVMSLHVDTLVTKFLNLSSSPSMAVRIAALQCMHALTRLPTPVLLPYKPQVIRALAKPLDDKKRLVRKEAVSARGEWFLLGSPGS

[4] = target: T4, human primase small subunit PriS (human, UniProt P49642 1-420); assay: cryo-EM structure
T4 sequence: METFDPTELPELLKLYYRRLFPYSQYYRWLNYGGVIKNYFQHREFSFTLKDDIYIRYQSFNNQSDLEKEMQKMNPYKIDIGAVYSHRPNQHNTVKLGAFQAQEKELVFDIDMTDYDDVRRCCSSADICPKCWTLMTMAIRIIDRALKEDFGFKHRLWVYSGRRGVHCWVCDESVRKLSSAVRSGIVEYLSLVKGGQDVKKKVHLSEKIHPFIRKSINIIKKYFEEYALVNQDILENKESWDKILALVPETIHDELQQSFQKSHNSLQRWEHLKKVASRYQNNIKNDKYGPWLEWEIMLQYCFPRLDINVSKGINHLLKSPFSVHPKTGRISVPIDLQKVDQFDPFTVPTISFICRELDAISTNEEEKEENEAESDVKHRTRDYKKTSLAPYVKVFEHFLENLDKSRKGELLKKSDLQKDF

full-length mouse DNA2 = target: B4; assay: cryo-EM structure
[5] = target: full-length human CIA targeting complex (MMS19-CIAO1-CIAO2B) (human, UniProt Q96T76;O76071;Q9Y3D0); assay: cryo-EM structure
full-length human CIA targeting complex (MMS19-CIAO1-CIAO2B), sequence (O76071 whole entry, chain 2 of 2): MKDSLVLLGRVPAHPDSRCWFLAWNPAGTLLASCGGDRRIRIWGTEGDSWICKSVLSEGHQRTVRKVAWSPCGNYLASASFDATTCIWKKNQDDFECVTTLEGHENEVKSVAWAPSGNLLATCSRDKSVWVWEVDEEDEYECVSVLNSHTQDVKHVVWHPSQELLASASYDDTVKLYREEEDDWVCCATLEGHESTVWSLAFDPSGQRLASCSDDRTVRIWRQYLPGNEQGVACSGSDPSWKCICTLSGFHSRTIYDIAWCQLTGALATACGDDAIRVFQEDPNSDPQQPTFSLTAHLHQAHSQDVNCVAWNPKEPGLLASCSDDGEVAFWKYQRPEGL
full-length human CIA targeting complex (MMS19-CIAO1-CIAO2B), sequence (Q9Y3D0 whole entry, chain 3 of 2): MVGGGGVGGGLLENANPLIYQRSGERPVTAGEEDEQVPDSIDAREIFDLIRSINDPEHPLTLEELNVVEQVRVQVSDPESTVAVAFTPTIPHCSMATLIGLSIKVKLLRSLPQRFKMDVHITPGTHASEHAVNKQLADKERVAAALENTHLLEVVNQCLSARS

B1: C-terminal fragment of mouse MMS19 (residues 911-1031) (domain or fragment)
chain: ELPTLLSLLLEALSCPDSVVQLSTLSCLQPLLLEAPQIMSLHVDTLVTKFLNLSSSYSMAVRIAALQCMHALTRLPTSVLLPYKSQVIRALAKPLDDKKRLVRKEAVSARGEWFLLGSPGS
binding result [1]: binds | binding result [2]: binds

B2: human primase large subunit PriL (natural protein)
chain: MEFSGRKWRKLRLAGDQRNASYPHCLQFYLQPPSENISLIEFENLAIDRVKLLKSVENLGVSYVKGTEQYQSKLESELRKLKFSYRENLEDEYEPRRRDHISHFILRLAYCQSEELRRWFIQQEMDLLRFRFSILPKDKIQDFLKDSQLQFEAISDEEKTLREQEIVASSPSLSGLKLGFESIYKIPFADALDLFRGRKVYLEDGFAYVPLKDIVAIILNEFRAKLSKALALTARSLPAVQSDERLQPLLNHLSHSYTGQDYSTQGNVGKISLDQIDLLSTKSFPPCMRQLHKALRENHHLRHGGRMQYGLFLKGIGLTLEQALQFWKQEFIKGKMDPDKFDKGYSYNIRHSFGKEGKRTDYTPFSCLKIILSNPPSQGDYHGCPFRHSDPELLKQKLQSYKISPGGISQILDLVKGTHYQVACQKYFEMIHNVDDCGFSLNHPNQFFCESQRILNGGKDIKKEPIQPETPQPKPSVQKTKDASSALASLNSSLEMDMEGLEDYFSEDS
binding result [3]: binds

B3: human CIAO1 (subunit of the purified CTC) (natural protein)
chain: not shown
binding result [4]: binds | binding result (full-length mouse DNA2): binds

B4
binding result [5]: binds
